From the Immune Epitope Database (IEDB)
pKd: −log10 of the molar value.

Experiments:
HLA-B*40:01 [1] = assay: IEDB peptide-MHC binding, purified MHC/competitive/radioactivity; filed as Kd, often an IC50 or EC50 that approximates it; ≥ and ≤ were set here for values at or beyond the usual limits of such assays; conditions: source organism: Dengue virus 2 Jamaica/1409/1983
HLA-B*44:03 = assay: as above; conditions: source organism: Dengue virus 2 Jamaica/1409/1983
HLA-B*54:01 = assay: as above
HLA-B*35:01 = assay: as above
HLA-B*53:01 = assay: as above
HLA-B*07:02 = assay: as above
HLA-B*51:01 [2] = assay: as above
HLA-B*40:01 [3] = assay: IEDB peptide-MHC binding, purified MHC/direct/fluorescence; filed as Kd, often an IC50 or EC50 that approximates it; ≥ and ≤ were set here for values at or beyond the usual limits of such assays; conditions: source organism: Influenza A virus (A/SW/MN/3227/00(H1N2))
HLA-B*44:02 = assay: as above
HLA-A*03:01 = assay: IEDB peptide-MHC binding, purified MHC/competitive/fluorescence; filed as Kd, often an IC50 or EC50 that approximates it; ≥ and ≤ were set here for values at or beyond the usual limits of such assays
HLA-B*18:01 = assay: IEDB peptide-MHC binding, purified MHC/direct/fluorescence; filed as Kd, often an IC50 or EC50 that approximates it; ≥ and ≤ were set here for values at or beyond the usual limits of such assays; conditions: source organism: dengue virus type 2
HLA-A*11:01 = assay: IEDB peptide-MHC binding, purified MHC/competitive/radioactivity; filed as Kd, often an IC50 or EC50 that approximates it; ≥ and ≤ were set here for values at or beyond the usual limits of such assays; conditions: source organism: Mammarenavirus machupoense
HLA-B*58:01 = assay: IEDB peptide-MHC binding, purified MHC/direct/fluorescence; filed as Kd, often an IC50 or EC50 that approximates it; ≥ and ≤ were set here for values at or beyond the usual limits of such assays
HLA-B*57:01 = assay: as above
HLA-A*26:01 = assay: IEDB peptide-MHC binding, purified MHC/competitive/fluorescence; filed as Kd, often an IC50 or EC50 that approximates it; ≥ and ≤ were set here for values at or beyond the usual limits of such assays; conditions: source organism: Escherichia coli
HLA-B*51:01 [4] = assay: as above; conditions: source organism: Mycobacterium tuberculosis H37Ra
[5] = source organism: SARS coronavirus Tor2
[6] = source organism: Triticum aestivum
[7] = source organism: Mammarenavirus machupoense
[8] = source organism: Giardia lamblia ATCC 50803
[9] = source organism: Vaccinia virus WR
[10] = source organism: Mammarenavirus juninense

## LEFFLIVLLI
HLA-B*40:01 [1]
  pKd: 6.19
HLA-B*44:03
  pKd: 5.61

## FPPTSFGPLV
HLA-B*54:01; [5]
  pKd: 5.90
HLA-B*35:01; [5]
  pKd: ≤ 4.61
HLA-B*53:01; [5]
  pKd: 5.31
HLA-B*07:02; [5]
  pKd: 5.68
HLA-B*51:01 [2]; [5]
  pKd: 5.20

## LPYPQPQLPY
HLA-B*54:01; [6]
  pKd: 5.07
HLA-B*35:01; [6]
  pKd: 9.31
HLA-B*53:01; [6]
  pKd: 8.35
HLA-B*07:02; [6]
  pKd: 5.36
HLA-B*51:01 [2]; [6]
  pKd: 8.04

## FPLNSKVKVI
HLA-B*54:01; [5]
  pKd: 6.03
HLA-B*35:01; [5]
  pKd: ≤ 4.53
HLA-B*53:01; [5]
  pKd: 5.97
HLA-B*07:02; [5]
  pKd: ≤ 4.48
HLA-B*51:01 [2]; [5]
  pKd: 5.33

## LPTSITVPV
HLA-B*54:01; [7]
  pKd: 8.40
HLA-B*35:01; [7]
  pKd: 8.45
HLA-B*53:01; [7]
  pKd: 7.14
HLA-B*07:02; [7]
  pKd: 7.17
HLA-B*51:01 [2]; [7]
  pKd: 5.71

## LEESHPGIF
HLA-B*40:01 [3]
  pKd: 7.07
HLA-B*44:02; source organism: Influenza A virus (A/SW/MN/3227/00(H1N2))
  pKd: ≤ 4.70

## SVYGLMGFH
HLA-A*03:01; source organism: Canarypox virus
  pKd: 7.53

## RPLMESELVI
HLA-B*54:01; [5]
  pKd: ≤ 4.34
HLA-B*35:01; [5]
  pKd: 6.40
HLA-B*53:01; [5]
  pKd: 6.66
HLA-B*07:02; [5]
  pKd: 6.18
HLA-B*51:01 [2]; [5]
  pKd: 7.48

## EEEQTLTIL
HLA-B*18:01
  pKd: 5.40
HLA-B*44:02; source organism: dengue virus type 2
  pKd: ≤ 4.70

## APSASAFFGM
HLA-B*54:01; [5]
  pKd: ≤ 4.37
HLA-B*35:01; [5]
  pKd: 5.67
HLA-B*53:01; [5]
  pKd: 5.39
HLA-B*07:02; [5]
  pKd: 6.91
HLA-B*51:01 [2]; [5]
  pKd: 5.70

## MVFVELPSK
HLA-A*03:01; source organism: Bacillus anthracis str. A0488
  pKd: 6.99

## MLNNSFYYM
HLA-B*54:01; [7]
  pKd: 5.12
HLA-A*11:01
  pKd: 6.71

## IPCRDVVL
HLA-B*54:01; [6]
  pKd: ≤ 4.06
HLA-B*35:01; [6]
  pKd: 4.77
HLA-B*53:01; [6]
  pKd: ≤ 4.31
HLA-B*07:02; [6]
  pKd: 5.43
HLA-B*51:01 [2]; [6]
  pKd: 7.17

## RTRPPPCPH
HLA-B*58:01; [8]
  pKd: ≤ 4.70
HLA-B*57:01; [8]
  pKd: 6.03

## FSFGDYFKK
HLA-A*03:01; source organism: Fusobacterium vincentii ATCC 49256
  pKd: 7.40

## PPYCTIAPVGI
HLA-B*54:01; [6]
  pKd: ≤ 4.56
HLA-B*35:01; [6]
  pKd: ≤ 4.20
HLA-B*53:01; [6]
  pKd: ≤ 4.20
HLA-B*07:02; [6]
  pKd: 5.35
HLA-B*51:01 [2]; [6]
  pKd: ≤ 4.38

## DVSEQLELI
HLA-A*26:01
  pKd: ≤ 4.70

## AMSTWSFYH
HLA-A*03:01; source organism: Yersinia pestis Nepal516
  pKd: 7.88

## LPVPLFPGF
HLA-B*51:01 [4]
  pKd: 6.60

## KLFFQVIAK
HLA-A*03:01; source organism: Yersinia pestis Antiqua
  pKd: 8.19

## FPNITNLCPF
HLA-B*54:01; [5]
  pKd: 6.35
HLA-B*35:01; [5]
  pKd: 8.78
HLA-B*53:01; [5]
  pKd: 9.11
HLA-B*07:02; [5]
  pKd: 7.25
HLA-B*51:01 [2]; [5]
  pKd: 8.20

## TPTIEDDKIV
HLA-B*54:01; [9]
  pKd: 5.50
HLA-B*35:01; [9]
  pKd: ≤ 4.28
HLA-B*53:01; [9]
  pKd: ≤ 4.54
HLA-B*07:02; [9]
  pKd: 4.71
HLA-B*51:01 [2]; [9]
  pKd: 5.00

## GAITSAHFM
HLA-B*58:01; source organism: Mycobacterium tuberculosis
  pKd: 6.04
HLA-B*57:01; source organism: Mycobacterium tuberculosis str. Haarlem
  pKd: 6.16

## MPGVLSYVV
HLA-B*54:01; [10]
  pKd: 9.29
HLA-B*35:01; [10]
  pKd: 7.65
HLA-B*53:01; [10]
  pKd: 6.73
HLA-B*07:02; [10]
  pKd: 5.99
HLA-B*51:01 [2]; [10]
  pKd: 6.68
